Ends that are not written are not given here.
Experiments:
[1] = molecular target: T1, ^19F-labeled Tom70 (5F-tryptophan, residues 108–608) (human, UniProt O94826 108-608, 5-fluoro-tryptophan at W169 and W523); experiment: NMR titration
T1 sequence: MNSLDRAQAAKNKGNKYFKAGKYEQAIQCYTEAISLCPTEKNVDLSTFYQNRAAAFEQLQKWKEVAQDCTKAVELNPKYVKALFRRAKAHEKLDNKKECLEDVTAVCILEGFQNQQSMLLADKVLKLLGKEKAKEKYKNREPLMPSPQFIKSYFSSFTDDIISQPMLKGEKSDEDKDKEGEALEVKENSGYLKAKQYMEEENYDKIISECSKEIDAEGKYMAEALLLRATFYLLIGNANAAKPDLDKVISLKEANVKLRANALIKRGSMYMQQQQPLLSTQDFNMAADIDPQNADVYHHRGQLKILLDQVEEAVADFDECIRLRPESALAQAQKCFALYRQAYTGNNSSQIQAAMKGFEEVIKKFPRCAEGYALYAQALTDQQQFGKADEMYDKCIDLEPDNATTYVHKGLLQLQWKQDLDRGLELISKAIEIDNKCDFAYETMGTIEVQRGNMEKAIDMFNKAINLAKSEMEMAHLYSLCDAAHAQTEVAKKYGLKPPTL

[2] = molecular target: Tom70:Hsp90_(EEVD) complex (human, UniProt O94826 108-608); experiment: ITC
[3] = molecular target: T2, human Tom70 (residues 108–608) (human, UniProt O94826 108-608); experiment: ITC
T2 sequence: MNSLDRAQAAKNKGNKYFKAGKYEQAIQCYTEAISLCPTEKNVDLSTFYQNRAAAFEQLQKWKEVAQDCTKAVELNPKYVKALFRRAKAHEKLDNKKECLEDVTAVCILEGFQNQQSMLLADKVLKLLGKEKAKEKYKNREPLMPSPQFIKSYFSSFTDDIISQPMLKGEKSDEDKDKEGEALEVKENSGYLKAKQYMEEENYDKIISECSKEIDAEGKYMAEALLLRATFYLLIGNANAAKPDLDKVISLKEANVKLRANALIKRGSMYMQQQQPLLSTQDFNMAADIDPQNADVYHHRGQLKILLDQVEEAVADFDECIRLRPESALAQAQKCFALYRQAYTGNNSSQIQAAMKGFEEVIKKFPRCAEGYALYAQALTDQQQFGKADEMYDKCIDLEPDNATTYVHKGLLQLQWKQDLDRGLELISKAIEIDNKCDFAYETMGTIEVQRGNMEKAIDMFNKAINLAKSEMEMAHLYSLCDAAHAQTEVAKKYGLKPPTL

[4] = molecular target: ^19F Tom70:Orf9b_(Helix) complex (human | SARS-CoV-2, UniProt O94826 108-608, 5-fluoro-tryptophan at W169 and W523); experiment: NMR titration
[5] = molecular target: T2, human Tom70 (residues 108–608); experiment: cryo-EM structure
[6] = molecular target: Tom70:Orf9b_(Helix) complex (human | SARS-CoV-2, UniProt O94826 108-608); experiment: ITC

Measured: binding result

IILRLGSPLSLNMARKTLNSLEDKAFQLTPIAVQY [Orf9b_(Helix) peptide]
binds: [1] | [2] | [3]

YDTSRMEEVD-OH [Hsp90_(EEVD) peptide]
binds: [4] | [5] | [6]

Reference: article PMC13426413 (Science Advances, 2026)
